Assay results taken from patent US20230002480A1.

Key:
Experiment in all cases: cell-based or functional assay
[1] = target: HIV-1 Env of pseudovirus CAP45.2.00.G3 (HIV-1)
[2] = target: HIV-1 Env of pseudovirus QH0692.42 (HIV-1)
[3] = target: HIV-1 Env of pseudovirus WEAU_d15_410_787 (HIV-1)
[4] = target: HIV-1 Env of pseudovirus T250-4 (HIV-1)
[5] = target: HIV-1 Env of pseudovirus RHPA4259.7 (HIV-1)
[6] = target: HIV-1 Env of pseudovirus CNE58 (HIV-1)
[7] = target: HIV-1 Env of pseudovirus Ce2060_G9 (HIV-1)
[8] = target: HIV-1 Env of pseudovirus 1394C9G1(Rev-) (HIV-1)
[9] = target: HIV-1 Env of pseudovirus 1054_07_TC4_1499 (HIV-1)
[10] = target: HIV-1 Env of pseudovirus 191955_A11 (HIV-1)
[11] = target: HIV-1 Env of pseudovirus Ce704809221_1B3 (HIV-1)
[12] = target: HIV-1 Env of pseudovirus 249M B10 (HIV-1)
[13] = target: HIV-1 Env of pseudovirus 1006_11_C3_1601 (HIV-1)
[14] = target: HIV-1 Env of pseudovirus 191084 B7-19 (HIV-1)
[15] = target: HIV-1 Env of pseudovirus 6244_13_B5_4576 (HIV-1)
[16] = target: HIV-1 Env of pseudovirus CNE30 (HIV-1)
[17] = target: HIV-1 Env of pseudovirus Ce1172_H1 (HIV-1)
[18] = target: HIV-1 Env of pseudovirus Q259.d2.17 (HIV-1)
[19] = target: HIV-1 Env of pseudovirus HIV-16845-2.22 (HIV-1)
[20] = target: HIV-1 Env of pseudovirus 7030102001E5(Rev-) (HIV-1)
[21] = target: HIV-1 Env of pseudovirus Du172.17 (HIV-1)
[22] = target: HIV-1 Env of pseudovirus CNE17 (HIV-1)
[23] = target: HIV-1 Env of pseudovirus TRO.11 (HIV-1)
[24] = target: HIV-1 Env of pseudovirus 6535.3 (HIV-1)
[25] = target: HIV-1 Env of pseudovirus 62357_14_D3_4589 (HIV-1)
[26] = target: HIV-1 Env of pseudovirus WITO4160.33 (HIV-1)
[27] = target: HIV-1 Env of pseudovirus BF1266.431a (HIV-1)

Substance: 10-1074 (antibody)
- IC50, titer in TZM.bl cells [1]: > 50 µg/mL
- IC80, titer in TZM.bl cells [1]: > 50 µg/mL
- IC50, titer in TZM.bl cells [2]: 0.191 µg/mL
- IC80, titer in TZM.bl cells [2]: 0.929 µg/mL
- IC50, titer in TZM.bl cells [3]: 0.104 µg/mL
- IC80, titer in TZM.bl cells [3]: 0.375 µg/mL
- IC50, titer in TZM.bl cells [4]: < 0.001 µg/mL
- IC80, titer in TZM.bl cells [4]: 0.005 µg/mL
- IC50, titer in TZM.bl cells [5]: 0.021 µg/mL
- IC80, titer in TZM.bl cells [5]: 0.118 µg/mL
- IC50, titer in TZM.bl cells [6]: 0.267 µg/mL
- IC80, titer in TZM.bl cells [6]: 0.968 µg/mL
- IC50, titer in TZM.bl cells [7]: > 50 µg/mL
- IC80, titer in TZM.bl cells [7]: > 50 µg/mL
- IC50, titer in TZM.bl cells [8]: 0.05 µg/mL
- IC80, titer in TZM.bl cells [8]: 0.191 µg/mL
- IC50, titer in TZM.bl cells [9]: 0.129 µg/mL
- IC80, titer in TZM.bl cells [9]: 0.563 µg/mL
- IC50, titer in TZM.bl cells [10]: > 50 µg/mL
- IC80, titer in TZM.bl cells [10]: > 50 µg/mL
- IC50, titer in TZM.bl cells [11]: 0.139 µg/mL
- IC80, titer in TZM.bl cells [11]: 0.696 µg/mL
- IC50, titer in TZM.bl cells [12]: > 50 µg/mL
- IC80, titer in TZM.bl cells [12]: > 50 µg/mL
- IC50, titer in TZM.bl cells [13]: 0.003 µg/mL
- IC80, titer in TZM.bl cells [13]: 0.013 µg/mL
- IC50, titer in TZM.bl cells [14]: 0.032 µg/mL
- IC80, titer in TZM.bl cells [14]: 0.128 µg/mL
- IC50, titer in TZM.bl cells [15]: 0.202 µg/mL
- IC80, titer in TZM.bl cells [15]: 0.922 µg/mL
- IC50, titer in TZM.bl cells [16]: 0.363 µg/mL
- IC80, titer in TZM.bl cells [16]: 1.2 µg/mL
- IC50, titer in TZM.bl cells [17]: 0.047 µg/mL
- IC80, titer in TZM.bl cells [17]: 0.166 µg/mL
- IC50, titer in TZM.bl cells [18]: > 50 µg/mL
- IC80, titer in TZM.bl cells [18]: > 50 µg/mL
- IC50, titer in TZM.bl cells [19]: 1.17 µg/mL
- IC80, titer in TZM.bl cells [19]: 5.83 µg/mL
- IC50, titer in TZM.bl cells [20]: 0.006 µg/mL
- IC80, titer in TZM.bl cells [20]: 0.021 µg/mL
- IC50, titer in TZM.bl cells [21]: 0.121 µg/mL
- IC80, titer in TZM.bl cells [21]: 0.43 µg/mL
- IC50, titer in TZM.bl cells [22]: 2.69 µg/mL
- IC80, titer in TZM.bl cells [22]: 13.3 µg/mL
- IC50, titer in TZM.bl cells [23]: 0.008 µg/mL
- IC80, titer in TZM.bl cells [23]: 0.057 µg/mL
- IC50, titer in TZM.bl cells [24]: 0.014 µg/mL
- IC80, titer in TZM.bl cells [24]: 0.026 µg/mL
- IC50, titer in TZM.bl cells [25]: > 50 µg/mL
- IC80, titer in TZM.bl cells [25]: > 50 µg/mL
- IC50, titer in TZM.bl cells [26]: 0.185 µg/mL
- IC80, titer in TZM.bl cells [26]: 2.11 µg/mL
- IC50, titer in TZM.bl cells [27]: > 50 µg/mL
- IC80, titer in TZM.bl cells [27]: > 50 µg/mL
